Data published in patent US20130072665A1 (Amgen, published 2013).
Read-outs that look alike come from different tables or passages of the source. Blank lines part the entries; values can stand above or below the binder they belong to.

What was measured:
Assay in all cases: domain binding ELISA (coated antibody captures the PCSK9 form; OD650)
[1] = biological target: T1, PCSK9 V domain (450-692 of SEQ ID NO: 3) (human, UniProt Q8NBP7 450-692)
T1 construct: also called v-domain PCSK9
T1 chain: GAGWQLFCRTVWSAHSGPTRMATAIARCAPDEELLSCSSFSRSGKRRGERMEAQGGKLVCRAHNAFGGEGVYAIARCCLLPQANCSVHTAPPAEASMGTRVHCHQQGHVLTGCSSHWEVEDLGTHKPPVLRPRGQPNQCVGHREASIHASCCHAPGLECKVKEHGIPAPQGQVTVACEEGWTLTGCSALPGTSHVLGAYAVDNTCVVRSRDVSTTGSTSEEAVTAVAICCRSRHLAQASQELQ
Experimental: (§1) Clear, 96 well maxisorp plates (Nunc) were coated overnight with 2 ug/ml of various anti-PCSK9 antibodies diluted in PBS. Plates were washed thoroughly with PBS/0.05% Tween-20 and then blocked for two hours with 3% BSA/PBS.

[2] = biological target: T2, PCSK9 ProCat (31-449 of SEQ ID NO: 3) (human, UniProt Q8NBP7 27-449)
T2 construct: From PCSK9 449TEV after rTEV cleavage: GAMG-PCSK9 (31-449)-ENLYFQ; Written as one chain; autocatalysis between 152 and 153 splits pro-domain and catalytic domain; also called procat PCSK9; PCSK9 31-449
Experimental: as §1

[3] = biological target: T1, PCSK9 V domain (450-692 of SEQ ID NO: 3)
Experimental: as §1

[4] = biological target: T2, PCSK9 ProCat (31-449 of SEQ ID NO: 3); remark: listed apart in the source
Experimental: as §1

- binding result [1]: no binding
- binding result [2]: binds
B10: 27E7 (antibody, V domains shown)
VH: QVQLVQSGAEVKKPGASLKVSCKASGYSLTSYGISWVRQAPGQGLEWMGWISAYNGNTNYAQKVQGRVTMTTDTSTSTVYMEVRSLRSDDTAVYYCARGYGMDVWGQGTTVTVSS
VL: QSALTQPASVSGSPGQSITISCTGTSSDVGGYNSVSWYQQHPGKPPKLMIYEVSNRPSGVSNRFSGSKSGNTASLTISGLQAEDEADYFCSSYTSTSMVFGGGTKLTVL

- binding result [3]: no binding
- binding result [4]: binds
B11: 31D1 (antibody, V domains shown)
VH: QIQLVQSGAEVKKPGASVKVSCKASGYTLTSYGISWVRQAPGQGLEWMGWISFYNGNTNYAQKVQGRVTMTTDTSTSTVYMELRSLRSDDTAVYFCARGYGMDVWGQGTTVTVSS
VL: QSALTQPASVSGSPGQSITISCTGTSSDVGGYNSVSWYQQHPGKPPKLMIYEVSNRPSGVSNRFSGSKSGNTASLTISGLQAEDEADYFCSSYTSTSMVFGGGTKLAVL

- binding result [2]: no binding
B13: 13B5 (antibody, V domains shown)
VH: EVQLLESGGGLVQPGGSLRLSCAASGFTFSSYAMSWVRQAPGKGLEWVSTISGSGGRTYYADSVKGRFTISRDNSKNTLYLQMNSLRAEDTAVYYCAKEVGSPFDYWGQGTLVTVSS
VL: QSVLTQPPSVSAAPGQKVTISCSGSNSNIGNNYVSWYQQLPGTAPKLLIYDNNKRPSGIPDRFSGSNSGTSATLGITGLQTGDEADYYCGTWDSSLSAVVFGGGTKLTVL

- binding result [3]: no binding
- binding result [4]: binds
B14: 27A6 (antibody, V domains shown)
VH: QVHLVESGGGVVQPGRSLRLSCAASGFTFNSFGMHWVRQAPGKGLEWVALIWSDGSDKYYADSVKGRFTISRDNSKNTLYLQMNSLRAEDTAVYYCARAIAALYYYYGMDVWGQGTTVTVSS
VL: QSVLTQPPSVSAAPGQKVTISCSGSSSNIGNNFVSWYQQFPGTAPKLLIYDYNKRPSGIPDRFSGSKSGTSATLGITGLQTGDEADYYCGTWDSSLSSYVFGTGTRVTVL

- binding result [3]: no binding
- binding result [4]: binds
B15: 28B12 (antibody, V domains shown)
VH: QVQLVESGGGVVQPGRSLRLSCAASGFTFSSFGMHWVRQAPGKGLEWVALIWNDGSNKYYADSVKGRFTISRDNSKNTLYLQMNSLRAEDTAVYYCARAIAALYYYYGMDVWGHGTTVTVSS
VL: QSVLTQPPSVSAAPGQKVTISCSGSSSNIGNNFVSWYQQLPGTAPKLLIYDYNKRPSGIPDRFSGSKSGTSATLGITGLQTGDEADYYCGTWDSSLSGYVFGTGTRVTVL

- binding result [3]: no binding
B16: 16F12 (antibody, V domains shown)
VH: QVHLVESGGGVVQPGRSLRLSCAASGFTFNSFGMHWVRQAPGKGLEWVALIWSDGSDEYYADSVKGRFTISRDNSKNTLYLQMNSLRAEDTAVYYCARAIAALYYYYGMDVWGQGTTVTVSS
VL: QSVLTQPPSVSAAPGQKVTISCSGSSSNIGNNFVSWYQQLPGTAPKLLIYDYNKRPSGIPDRFSGSKSGTSATLGITGLQTGDEADYYCGTWDSSLSAYVFGTGTRVTVL
notes: lambda light chain

- binding result [3]: no binding
B17: 31G11 (antibody, V domains shown)
VH: QVQLVESGGGVVQPGRSLRLSCAASGFTFRSYGMHWVRQAPGKGLEWVALIWHDGSNTYYVDSVKGRFTISRDNSKNTLYLQMNSLRAEDTAVYYCARGIAVAYYYYGMDVWGQGTTVTVSS
VL: QSVLTQPPSVSAAPGQKVTISCSGSSSNIGNNFVSWYQQLPGTAPKLLIYDSNKRPSGIPDRFSGSKSGTSATLDITGLQTGDEADYYCGTWDSSLSAYVFGTGTKVTVL

- binding result [3]: no binding
- binding result [4]: binds
B18: 28D6 (antibody, V domains shown)
VH: QVQLVESGGGVVQPGRSLRLSCAASGFTFSSFGMHWVRQAPGKGLEWVALIWNDGSNKYYADSVKGRFTISRDNSKNTLYLQMNSLRAEDTAVYYCARAIAALYYYYGMDVWGQGTTVTVSS
VL: QSVLTQPPTVSAAPGQKVTISCSGSSSNIGNNFVSWYQQLPGTAPKLLIYDYNKRPSGIPDRFSGSKSGTSATLGITGLQTGDEADYYCGTWDSSLSGYVFGTGTRVTVL

Continued, binder first:

B1: 31B12 (antibody, V domains shown)
VH: QVQLVESGGGVVQPGRSLRLSCAASGFTFSSYGMHWVRQAPGKGLEWVAIIWYDGSNKYYADSVKGRFTISRDNSKNTLYLQMNSLRAEDTAVYYCARRGGLAARPGGMDVWGQGTTVTVSS
VL: SYELTQPPSVSVSPGQTARITCSGDKLGDKYACWYQQKPGQSPVLVIYQNTKWPLGIPERFSGSKSGNTVTLTISGTQAMDEADYYCQAWDSSTVVFGGGTKLTVL
- binding result [1]: no binding

B2: 30B9 (antibody, V domains shown)
VH: QVQLVQSGAEVKKPGASVKVSCKASGYPLTSYGISWVRQAPGQGLEWMGWISAYNGNTNYAQKVQGRVTMTTDTSTSTVYMELRSLRSDDTAVYYCARGYGMDVWGQGTTVTVSS
VL: QSALTQPASVSGSPGQSITISCTGTSSDVGGYNSVSWYQQHPGKPPKLMIYEVSNRPSGVSNRFSGSKSGNTASLTISGLQAEDEADYFCSSYTSTSMVFGGGTKLTVL
- binding result [1]: no binding
- binding result [2]: binds

B3: 3B6 (antibody, V domains shown)
VH: QVQLVQSGAEVKKPGASVKVSCKASGYTFTSYGISWVRQAPGQGLEWMGWISTYNGNTNYAQKVQGRVTMTTDTSTSTAYMELRSLRSDDTAVYYCARGYTRDYWGQGTLVTVSS
VL: QPVLTQPLFASASLGASVTLTCTLSSGYSSYEVDWYQQRPGKGPRFVMRVDTGGIVGSKGEGIPDRFSVLGSGLNRYLTIKNIQEEDESDYHCGADHGSGTNFVVVFGGGTKLTVL
- binding result [3]: no binding
- binding result [4]: binds

B4: 17C2.1 (antibody, V domains shown)
VH: QVQLVQSGAEVKKPGASVKVSCKASGYSFTSYGISWVRQAPGQGLEWMGWVSAYNGNTNYAQKFQGRVTMTTDTSTSTAYMELRSLRSDDTAVYYCARGYVMDVWGQGTTVTVSS
VL: QSALTQPASVFGSPGQSITISCTGTSSDVGAYNSVSWYQQHPGKAPKRMIYEVSNRPSGVSNRFSGSKSGNTASLTISGLQAEDEADYYCSSYTSTNMVFGGGTKLTVL
notes: subclone
- binding result [1]: no binding

B5: 26E10.1 (antibody, V domains shown)
VH: QVQLVQSGAEVKKPGASVKVSCKASGYTLTSYGISWVRQAPGQGLEWMGWVSFYNGNTNYAQKLQGRGTMTTDPSTSTAYMELRSLRSDDTAVYYCARGYGMDVWGQGTTVTVSS
VL: QSALTQPASVSGSPGQSITISCTGTSSDVGGYNSVSWYQQHPGKAPKLMIYEVSNRPSGVFNRFSGSKSGNTASLTISGLQAEDEADYYCNSYTSTSMVFGGGTKLTVL
notes: subclone
- binding result [1]: no binding

B6: 19H9 (antibody, V domains shown)
VH: QVQLVQSGAEVKKPGASVKVSCKASGYALTSYGISWVRQAPGQGLEWMGWISAYNGNTNYAQKVQGRVTMTTDTSTSTVYMELRSLRSDDTAVYYCARGYGMDVWGQGTTVTVSS
VL: QSALTQPASVSGSPGQSITISCTGTNSDVGGYNSVSWYQQHPGKPPKLMIYEVSNRPSGISNRFSGSKSGNTASLTISGLQAEDEADYFCSSYTSTSMVFGGGTKLTVL
notes: also called 19H9.2
- binding result [1]: no binding
- binding result [2]: binds

B7: 20D10 (antibody, V domains shown)
VH: QIQLVQSGAEVKKPGASVKVSCKASGYPLTSYGISWVRQAPGQGLEWMGWISAYNGNTNYAQKVQGSVTMTTDTSTSTVYMELRSLRSDDTAVYYCARGYGMDVWGQGTTVTVSS
VL: QSALTQPASVSGSPGQSITISCTGTSSDVGGYNSVSWYQQYPGKPPKLKIYEVSNRPSGVSNRFSGSKSGNTASLTISGLQAEDEADYFCSSYTSTSMVFGGGTKLTVL
- binding result [3]: no binding
- binding result [4]: binds

B8: 27H5 (antibody, V domains shown)
VH: QVQLVQSGAEVKRPGASVKVSCKASGYTLTSYGISWVRQAPGQGLEWMGWISVYNGNTNYAQKVQGRVTMTTDTSTSTVYMELRSLSSDDTAVYYCARGYGMDVWGQGTTVTVSS
VL: QSALTQPASVSGSPGQSITISCTGTSSDVGGYNSVSWYQQHPGKPPKLMIYEVSNRPSGVSIRFSGSKSGNTASLTISGLQAEDEADYFCSSYTSTSMVFGGGTKLTVL
- binding result [1]: no binding
- binding result [2]: binds

B9: 23G1 (antibody, V domains shown)
VH: QVQLVQSGAEVKKPGASVKVSCKASGYTLTSYGISWVRQAPGQGLEWMGWVSFYNGNTNYAQKLQGRGTMTTDPSTSTAYMELRSLRSDDTAVYYCARGYGMDVWGQGTTVTVSS
VL: QSALTQPASVSGSPGQSITISCTGTSSDVGGYNSVSWYQQHPGKAPKLMIYEVTNRPSGVSNRFSGSKSGNTASLTISGLQAEDEADYYCNSYTSTSMVFGGGTKLTVL
- binding result [3]: no binding
- binding result [4]: binds

B12: 22E2 (antibody, V domains shown)
VH: QVQLVESGGGVVQPGRSLRLSCAASGFTFSSFGMHWVRQAPGKGLEWVALIWNDGSNKYYADSVKGRFTISRDNSKNTLYLQMNSLRAEDTAVYYCARAIAALYYYYGMDVWGQGTTVTVSS
VL: QSVLTQPPSVSAAPGQKVTISCSGSSSNIGNNFVSWYQQLPGTAPKLLIYDYNKRPSGIPDRFSGSKSGTSATLGITGLQTGDEADYYCGTWDSSLSGYVFGTGTRVTVL
- binding result [3]: no binding
- binding result [4]: binds
